Assay results taken from PMC11522927.

Molecular target: VirC^4A (HMG synthase VirC, Cys114Ala/Gln334Ala/Arg335Ala/Arg338Ala) (Streptomyces virginiae)
Experiment: SEC-SAXS

“VirC^4A (HMG synthase VirC, Cys114Ala/Gln334Ala/Arg335Ala/Arg338Ala) (enzyme)” showed a stoichiometry N of 2.
